The values that follow are results of earlier work, collected in PMC6389997.

Common to all, as to conditions: cited from earlier work
In data set [1] the target is sigma32 (Escherichia coli) (UniProt P0AGB3).
Data set [2] deals with Im7 (folded) (Escherichia coli) (UniProt Q03708).
Data set [3] concerns the target Im7 (unfolded-like) (Escherichia coli) (UniProt Q03708).
Data set [4] addresses Im7 (intermediate-like) (Escherichia coli) (UniProt Q03708).

Chain of Spy (P77754 24-161): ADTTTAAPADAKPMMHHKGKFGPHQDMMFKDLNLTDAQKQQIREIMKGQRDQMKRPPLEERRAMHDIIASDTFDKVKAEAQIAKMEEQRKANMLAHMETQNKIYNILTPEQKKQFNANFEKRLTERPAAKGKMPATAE
Chain of DnaK (P0A6Y8 2-638): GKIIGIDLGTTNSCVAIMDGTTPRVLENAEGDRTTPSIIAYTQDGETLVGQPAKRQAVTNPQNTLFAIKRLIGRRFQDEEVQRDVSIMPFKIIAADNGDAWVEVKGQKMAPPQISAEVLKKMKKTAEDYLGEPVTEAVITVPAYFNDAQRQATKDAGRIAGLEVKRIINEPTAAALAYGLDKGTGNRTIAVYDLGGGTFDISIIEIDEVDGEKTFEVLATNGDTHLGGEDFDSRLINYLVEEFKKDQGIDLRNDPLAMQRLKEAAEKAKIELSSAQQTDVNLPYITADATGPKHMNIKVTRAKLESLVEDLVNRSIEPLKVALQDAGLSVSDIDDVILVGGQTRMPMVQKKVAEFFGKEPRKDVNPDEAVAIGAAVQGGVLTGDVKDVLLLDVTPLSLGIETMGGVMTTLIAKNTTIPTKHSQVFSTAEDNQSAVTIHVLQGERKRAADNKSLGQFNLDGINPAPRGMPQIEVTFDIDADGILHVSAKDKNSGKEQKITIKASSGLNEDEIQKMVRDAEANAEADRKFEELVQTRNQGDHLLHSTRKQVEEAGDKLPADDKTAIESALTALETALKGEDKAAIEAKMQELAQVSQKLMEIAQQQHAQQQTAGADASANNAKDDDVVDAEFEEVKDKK
Chain of Im7 (unfolded-like) (Escherichia coli) (Q03708 whole entry): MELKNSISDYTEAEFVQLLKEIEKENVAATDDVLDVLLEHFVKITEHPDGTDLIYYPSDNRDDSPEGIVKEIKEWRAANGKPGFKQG
Chain of Im7 (intermediate-like) (Escherichia coli) (Q03708 whole entry): as above
Chain of Im7 (folded) (Escherichia coli) (Q03708 whole entry): as above
Chain of sigma32 (Escherichia coli) (P0AGB3 whole entry): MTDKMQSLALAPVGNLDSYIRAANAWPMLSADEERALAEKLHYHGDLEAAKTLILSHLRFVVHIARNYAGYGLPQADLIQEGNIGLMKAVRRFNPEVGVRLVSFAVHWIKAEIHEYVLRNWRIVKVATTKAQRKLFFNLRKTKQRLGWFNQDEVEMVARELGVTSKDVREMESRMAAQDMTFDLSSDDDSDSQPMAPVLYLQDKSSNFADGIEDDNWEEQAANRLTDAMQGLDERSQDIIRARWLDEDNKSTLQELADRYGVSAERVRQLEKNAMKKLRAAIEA

One may read the Kd as a measure of binding affinity in units of concentration. In the case of DnaK (from UniProt P0A6Y8), the Kd in data set [1] was 1.4 µM.

Consider Spy (from UniProt P77754), for which the Kd in data set [2] was 20.5 µM; in data set [3], 10.4 µM; in data set [4], 3.5 µM.
